Where two headings read alike, the source gives them in different places.
T1: FcgRIIa H (human, UniProt P12318 34-217)
T1 construct: extracellular domain; also called FcγRIIa H; FcγRIIa type H
T1 sequence (looked up): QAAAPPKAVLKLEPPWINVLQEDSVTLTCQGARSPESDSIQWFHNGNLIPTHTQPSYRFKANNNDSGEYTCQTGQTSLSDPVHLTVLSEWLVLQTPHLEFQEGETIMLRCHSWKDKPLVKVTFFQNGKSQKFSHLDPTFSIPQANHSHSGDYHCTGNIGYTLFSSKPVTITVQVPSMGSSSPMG

T2: FcgRIIa R (human, UniProt P12318 34-217)
T2 construct: extracellular domain; also called FcγRIIa R; FcγRIIa type R
T2 sequence (looked up): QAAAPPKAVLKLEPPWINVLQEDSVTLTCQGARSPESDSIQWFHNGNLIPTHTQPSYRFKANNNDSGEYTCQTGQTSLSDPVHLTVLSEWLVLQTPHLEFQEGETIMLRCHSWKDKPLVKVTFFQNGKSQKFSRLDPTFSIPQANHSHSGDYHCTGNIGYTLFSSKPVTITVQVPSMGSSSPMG

T3: FcgRIIb (human, UniProt P31994 43-217)
T3 construct: extracellular domain; also called FcγRIIb; CD32B
T3 sequence (looked up): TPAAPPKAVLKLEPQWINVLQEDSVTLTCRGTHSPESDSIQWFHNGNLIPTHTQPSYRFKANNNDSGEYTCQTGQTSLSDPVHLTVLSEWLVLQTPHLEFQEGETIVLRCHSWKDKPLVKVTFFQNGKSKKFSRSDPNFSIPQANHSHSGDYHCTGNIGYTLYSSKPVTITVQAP

B1: H240-Kn120/H240-Hl068/L73-k0 (antibody, human IgG1, kappa)
heavy 1: QDQLVQSGAEVKKPGASVKVSCKASGFNIKDTYIQWVRQAPGQGLEWMGRIDPLRKQTKYREKFEGRVTITADTSTNTAYMELSSLRSEDTAVYYCVRSGREFDYWGQGTLVTVSSASTKGPSVFPLAPSSKSTSGGTAALGCLVKDYFPEPVTVSWNSGALTSGVHTFPAVLQSSGLYSLSSVVTVPSSSLGTQTYICNVNHKPSNTKVDKKVEPKSCDKTHTCPPCPAPEYYWGPMVFLFPPKPKDTLMISRTPEVTCVVVDVSDEDPEVKFNWYVDGVEVHNAKTKPREEQYNATYRVVSVLTVLHQDWLNGKEYKCKVSNKDLPAPIEKTISKAKGQPREPQVCTLPPSRDELTKNQVSLWCLVKGFYPSDIAVEWESNGQPENNYKTTPPVLDSDGSFFLYSKLTVDKSRWQQGNVFSCSVMHEALHNHYTQKSLSLSP
heavy 2: QDQLVQSGAEVKKPGASVKVSCKASGFNIKDTYIQWVRQAPGQGLEWMGRIDPLRKQTKYREKFEGRVTITADTSTNTAYMELSSLRSEDTAVYYCVRSGREFDYWGQGTLVTVSSASTKGPSVFPLAPSSKSTSGGTAALGCLVKDYFPEPVTVSWNSGALTSGVHTFPAVLQSSGLYSLSSVVTVPSSSLGTQTYICNVNHKPSNTKVDKKVEPKSCDKTHTCPPCPAPELLGGPSVFLFPPKPKDTLMISRTPEVTCVVVDVSHEEPEVKFNWYVDGVEVHNAKTKPREEQYNSTYRVVSVLTVLHQDWLNGKEYKCKVSNDALPKPIEETISKAKGQPREPQVYTLPPSRCELTKNQVSLSCAVKGFYPSDIAVEWESNGQPENNYKTTPPVLDSDGSFFLVSKLTVDKSRWQQGNVFSCSVMHEALHNHYTQKSLSLSP
light: DIQMTQSPSSLSASVGDRVTITCRASQDIHKYIAWYQQKPGQAPRLLIQYTSTLQPGVPSRFSGSGSGTDYTFTISSLQPEDIATYYCLQYEQLRTFGGGTKVEIKRTVAAPSVFIFPPSDEQLKSGTASVVCLLNNFYPREAKVQWKVDNALQSGNSQESVTEQDSKDSTYSLSSTLTLSKADYEKHKVYACEVTHQGLSSPVTKSFNRGEC
notes: S239M introduced into H240-Kn067
B2: H240-Kn067/H240-Hl068/L73-k0 (antibody, human IgG1, kappa)
heavy 1: QDQLVQSGAEVKKPGASVKVSCKASGFNIKDTYIQWVRQAPGQGLEWMGRIDPLRKQTKYREKFEGRVTITADTSTNTAYMELSSLRSEDTAVYYCVRSGREFDYWGQGTLVTVSSASTKGPSVFPLAPSSKSTSGGTAALGCLVKDYFPEPVTVSWNSGALTSGVHTFPAVLQSSGLYSLSSVVTVPSSSLGTQTYICNVNHKPSNTKVDKKVEPKSCDKTHTCPPCPAPEYYWGPSVFLFPPKPKDTLMISRTPEVTCVVVDVSDEDPEVKFNWYVDGVEVHNAKTKPREEQYNATYRVVSVLTVLHQDWLNGKEYKCKVSNKDLPAPIEKTISKAKGQPREPQVCTLPPSRDELTKNQVSLWCLVKGFYPSDIAVEWESNGQPENNYKTTPPVLDSDGSFFLYSKLTVDKSRWQQGNVFSCSVMHEALHNHYTQKSLSLSP
heavy 2: QDQLVQSGAEVKKPGASVKVSCKASGFNIKDTYIQWVRQAPGQGLEWMGRIDPLRKQTKYREKFEGRVTITADTSTNTAYMELSSLRSEDTAVYYCVRSGREFDYWGQGTLVTVSSASTKGPSVFPLAPSSKSTSGGTAALGCLVKDYFPEPVTVSWNSGALTSGVHTFPAVLQSSGLYSLSSVVTVPSSSLGTQTYICNVNHKPSNTKVDKKVEPKSCDKTHTCPPCPAPELLGGPSVFLFPPKPKDTLMISRTPEVTCVVVDVSHEEPEVKFNWYVDGVEVHNAKTKPREEQYNSTYRVVSVLTVLHQDWLNGKEYKCKVSNDALPKPIEETISKAKGQPREPQVYTLPPSRCELTKNQVSLSCAVKGFYPSDIAVEWESNGQPENNYKTTPPVLDSDGSFFLVSKLTVDKSRWQQGNVFSCSVMHEALHNHYTQKSLSLSP
light: DIQMTQSPSSLSASVGDRVTITCRASQDIHKYIAWYQQKPGQAPRLLIQYTSTLQPGVPSRFSGSGSGTDYTFTISSLQPEDIATYYCLQYEQLRTFGGGTKVEIKRTVAAPSVFIFPPSDEQLKSGTASVVCLLNNFYPREAKVQWKVDNALQSGNSQESVTEQDSKDSTYSLSSTLTLSKADYEKHKVYACEVTHQGLSSPVTKSFNRGEC
notes: Heterodimerized: L234Y/L235Y/G236W/H268D/S298A/A327D in the knob chain, D270E/K326D/A330K/K334E in the hole chain

Experiments:
FcγRIIb = FcγRIIb (human, UniProt P31994 43-217); experiment: SPR (Biacore), KD
FcgRIIa H [1] = molecular target: T1, FcgRIIa H; experiment: SPR (Biacore), antibody captured, FcgR as analyte
Description: (§1) Then, H240-Hl136 (SEQ ID NO: 97) resulting from introduction of L234Y/L235Y/G236W/H268D/S298A/A327D into H240-Hl033 and H240-Kn133 (SEQ ID NO: 98) resulting from introduction of D270E/K326D/A330K/K334E into H240-Kn033 were constructed according to the method described in Reference Example 1.
(§2) Analysis of interaction between objective antibody and the FcγR was carried out using Biacore T100 (GE Healthcare), Biacore T200, Biacore A100, and Biacore 4000. HBS-EP+ (GE Healthcare) was used as the running buffer, and the measurement temperature was set to 25° C. Chips produced by immobilizing the antigen peptide by the amine coupling method to a Series S sensor Chip CM5 (GE Healthcare), chips produced by allowing preliminarily biotinylated antigen peptides to interact with and immobilize onto a Series S Sensor Chip SA (certified) (GE Healthcare), chips produced by immobilizing Protein L (ACTIGEN, BioVision) to Series S Sencor Chip CM5 (GE Healthcare), or chips produced by immobilizing Protein A/G (Thermo Scientific) to Series S Sencor Chip CM5 (GE Healthcare) were used. Antibodies of interest were captured onto these chips, and allowed to interact to each FcγR diluted with running buffer.

FcgRIIa R [2] = molecular target: T2, FcgRIIa R; experiment: SPR (Biacore), antibody captured, FcgR as analyte
Description: as §1, §2

FcgRIIIa V [3] = molecular target: T4, FcgRIIIa V (human, UniProt P08637 17-208); experiment: SPR (Biacore), antibody captured, FcgR as analyte
T4 construct: extracellular domain; polymorphic site made after J. Clin. Invest; also called FcγRIIIa V
T4 sequence (P08637 17-208 F176V limits assumed): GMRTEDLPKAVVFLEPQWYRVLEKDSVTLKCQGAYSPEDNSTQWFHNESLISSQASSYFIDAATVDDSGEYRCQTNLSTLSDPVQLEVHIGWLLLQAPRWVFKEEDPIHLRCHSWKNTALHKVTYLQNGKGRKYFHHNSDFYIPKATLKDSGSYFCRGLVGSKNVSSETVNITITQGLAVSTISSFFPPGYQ
Description: as §1, §2

FcgRIIIa F [4] = molecular target: T5, FcgRIIIa F (human, UniProt P08637 17-208); experiment: SPR (Biacore), antibody captured, FcgR as analyte
T5 construct: extracellular domain; polymorphic site made after J. Clin. Invest; also called FcγRIIIa F
T5 sequence (P08637 17-208): as the sequence (P08637 17-208 F176V limits assumed) above, with V160F counted along it
Description: as §1, §2

FcgRIIb = molecular target: T3, FcgRIIb; experiment: SPR (Biacore), antibody captured, FcgR as analyte
Description: (§3) Specifically, H240-Kn120 (SEQ ID NO: 99) resulting from introduction of S239M into H240-Kn067 and H240-Kn126 (SEQ ID NO: 100) resulting from introduction of Y235Q into H240-Kn120 were prepared according to the method described in Reference Example 1. […] Those described above were assayed for the binding to each FcgR according to the method described in Reference Example 8.
as §2, with “buffer. To regenerate and repeatedly use the chip, the antibodies captured onto the chip were washed off by reacting 10 mM glycine-HCl, pH 1.5.” for “buffer.”

FcgRIIa H [5] = molecular target: T1, FcgRIIa H; experiment: SPR (Biacore), antibody captured, FcgR as analyte; remark: listed apart in the source
Description: as §3
as §2, with “buffer. To regenerate and repeatedly use the chip, the antibodies captured onto the chip were washed off by reacting 10 mM glycine-HCl, pH 1.5.” for “buffer.”

FcgRIa = molecular target: T6, FcgRIa (human, UniProt P12314 16-292); experiment: SPR (Biacore), antibody captured, FcgR as analyte
T6 construct: extracellular domain; also called FcγRIa; FcγRI
T6 sequence (P12314 16-292): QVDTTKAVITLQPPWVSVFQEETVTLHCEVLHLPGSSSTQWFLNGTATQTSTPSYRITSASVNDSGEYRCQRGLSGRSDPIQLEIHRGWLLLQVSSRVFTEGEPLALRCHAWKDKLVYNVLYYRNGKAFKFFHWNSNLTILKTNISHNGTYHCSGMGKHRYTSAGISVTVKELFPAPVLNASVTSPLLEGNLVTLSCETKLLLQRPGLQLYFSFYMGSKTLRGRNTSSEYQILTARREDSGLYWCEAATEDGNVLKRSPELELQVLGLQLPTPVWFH
Description: as §3
as §2, with “buffer. To regenerate and repeatedly use the chip, the antibodies captured onto the chip were washed off by reacting 10 mM glycine-HCl, pH 1.5.” for “buffer.”

FcgRIIa R [6] = molecular target: T2, FcgRIIa R; experiment: SPR (Biacore), antibody captured, FcgR as analyte; remark: listed apart in the source
Description: as §3
as §2, with “buffer. To regenerate and repeatedly use the chip, the antibodies captured onto the chip were washed off by reacting 10 mM glycine-HCl, pH 1.5.” for “buffer.”

FcgRIIIa V [7] = molecular target: T4, FcgRIIIa V; experiment: SPR (Biacore), antibody captured, FcgR as analyte; remark: listed apart in the source
Description: as §3
as §2, with “buffer. To regenerate and repeatedly use the chip, the antibodies captured onto the chip were washed off by reacting 10 mM glycine-HCl, pH 1.5.” for “buffer.”

FcgRIIIa F [8] = molecular target: T5, FcgRIIIa F; experiment: SPR (Biacore), antibody captured, FcgR as analyte; remark: listed apart in the source
Description: as §3
as §2, with “buffer. To regenerate and repeatedly use the chip, the antibodies captured onto the chip were washed off by reacting 10 mM glycine-HCl, pH 1.5.” for “buffer.”

fold FcgRIIb-binding activity against native IgG1 (FcγRIIb)	Kd (FcgRIIa H [1])	Kd (FcgRIIa R [2])	Kd (FcgRIIIa V [3])	Kd (FcgRIIIa F [4])	Kd (FcgRIIb)	Kd (FcgRIIa H [5])	Kd (FcgRIa)	Kd (FcgRIIa R [6])	Kd (FcgRIIIa V [7])	Kd (FcgRIIIa F [8])	Binder
~50 times	–	–	–	–	–	–	–	–	–	–	B1
–	94 nM	49 nM	1.6 nM	7.1 nM	370 nM	94 nM	0.26 nM	49 nM	1.6 nM	7.1 nM	B2

Source: patent US20150344570A1 (published 2015)
